Experimental data from US7238668B1, “Inhibition of lymphocyte adherence with CS-1-peptides and fragments thereof” (Fred Hutchinson Cancer Research Center, priority 1989, dated 2007).
Ends that are not written are not given here.

Tests used:
[1] = biological target: integrin β1 subunit (human) (UniProt P05556); assay: cell-based or functional assay
Jurkat cells = assay: Jurkat cell adhesion to surfaces coated with peptide-rsa conjugates; type: cell-based, human; settings: peptide-rsa conjugate coated surfaces, 50% of total input cpm
Procedure: ^51Cr-labeled Jurkat cells ([…]) were incubated on surfaces coated with varying concentrations of peptide-rsa conjugates starting at 50 ug/ml (w/v) fragment or peptide (based on peptide not peptide-conjugate weight). […] (No adhesion=no measurable adhesion above negative controls.)
Adhesion of various hematopoetic cell lines to CS-1 (open bars; FIG. 12) or LDV minimal peptide-coated surfaces (cross-hatched bars; FIG. 12) was tested as follows: Jurkat (T lymphoblastoid), A375 (melanoma), U937 (monocytic), Ramos (B lymphoblastoid), and ST-1 (EBV transformed B lymphoblastoid) cells were allowed to adhere to CS-1-rsa or LDVPST-rsa (5 ug/ml peptide) coated surfaces for 30 min at 37° C. At the end of this time the non-adherent cells were washed off and the adherent cells were solubilized in NaOH/SDS and quantitated in a gamma counter. The results are expressed as bound counts per minute.

integrin receptor α4β1 [2] = biological target: T1, integrin receptor α4β1 (human, UniProt P13612 34-1032; P05556 21-798); assay: soluble peptide against 51Cr-Jurkat adhesion to plasma fibronectin (5 ug/ml coat); 50% inhibition point read from plot
T1 construct: whole, on cells; also called α4β1 extracellular matrix receptor; VLA 4
Procedure: For these experiments in Table XIII ^51Cr-labeled Jurkat cells (10^5/well) were incubated in the presence of the varying concentrations (starting at 2 mg/ml) of the indicated peptides for 15 min.

integrin receptor α4β1 [3] = biological target: T1, integrin receptor α4β1; assay: cell-based or functional assay
integrin receptor α4β1 [4] = biological target: T1, integrin receptor α4β1; assay: cell-based or functional assay; remark: listed apart in the source
integrin α5β1 = integrin α5β1 (human, UniProt P08648 42-1049; P05556 21-798); assay: cell-based or functional assay
Sequence of integrin α5β1 (P08648 42-1049, chain 1 of 2): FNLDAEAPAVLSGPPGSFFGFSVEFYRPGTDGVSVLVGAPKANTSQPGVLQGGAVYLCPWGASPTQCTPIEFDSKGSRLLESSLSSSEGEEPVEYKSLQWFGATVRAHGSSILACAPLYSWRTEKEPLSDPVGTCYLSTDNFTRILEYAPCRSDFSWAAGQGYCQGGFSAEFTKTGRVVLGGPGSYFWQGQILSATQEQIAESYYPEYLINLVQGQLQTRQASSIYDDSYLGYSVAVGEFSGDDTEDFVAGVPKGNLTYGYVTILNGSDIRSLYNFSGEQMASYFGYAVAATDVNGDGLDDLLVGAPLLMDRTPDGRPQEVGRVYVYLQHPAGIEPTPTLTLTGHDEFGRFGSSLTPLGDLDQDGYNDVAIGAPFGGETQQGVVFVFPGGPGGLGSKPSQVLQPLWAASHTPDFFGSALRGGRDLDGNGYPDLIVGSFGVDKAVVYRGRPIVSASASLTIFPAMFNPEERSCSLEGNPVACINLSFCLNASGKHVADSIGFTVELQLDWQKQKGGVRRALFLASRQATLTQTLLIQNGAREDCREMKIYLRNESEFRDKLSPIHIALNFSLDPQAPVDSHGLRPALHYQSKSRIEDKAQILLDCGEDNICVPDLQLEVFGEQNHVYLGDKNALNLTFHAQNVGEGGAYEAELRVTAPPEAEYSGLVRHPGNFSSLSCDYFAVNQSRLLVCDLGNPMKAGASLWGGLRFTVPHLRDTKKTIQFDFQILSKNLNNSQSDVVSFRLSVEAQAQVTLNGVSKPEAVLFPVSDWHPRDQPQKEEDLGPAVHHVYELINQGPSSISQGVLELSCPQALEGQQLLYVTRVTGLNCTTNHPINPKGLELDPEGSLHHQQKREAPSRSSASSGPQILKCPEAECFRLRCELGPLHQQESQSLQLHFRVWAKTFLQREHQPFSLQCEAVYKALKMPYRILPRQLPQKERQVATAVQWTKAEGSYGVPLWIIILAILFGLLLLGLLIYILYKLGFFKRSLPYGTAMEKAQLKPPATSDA
Sequence of integrin α5β1 (P05556 21-798, chain 2 of 2): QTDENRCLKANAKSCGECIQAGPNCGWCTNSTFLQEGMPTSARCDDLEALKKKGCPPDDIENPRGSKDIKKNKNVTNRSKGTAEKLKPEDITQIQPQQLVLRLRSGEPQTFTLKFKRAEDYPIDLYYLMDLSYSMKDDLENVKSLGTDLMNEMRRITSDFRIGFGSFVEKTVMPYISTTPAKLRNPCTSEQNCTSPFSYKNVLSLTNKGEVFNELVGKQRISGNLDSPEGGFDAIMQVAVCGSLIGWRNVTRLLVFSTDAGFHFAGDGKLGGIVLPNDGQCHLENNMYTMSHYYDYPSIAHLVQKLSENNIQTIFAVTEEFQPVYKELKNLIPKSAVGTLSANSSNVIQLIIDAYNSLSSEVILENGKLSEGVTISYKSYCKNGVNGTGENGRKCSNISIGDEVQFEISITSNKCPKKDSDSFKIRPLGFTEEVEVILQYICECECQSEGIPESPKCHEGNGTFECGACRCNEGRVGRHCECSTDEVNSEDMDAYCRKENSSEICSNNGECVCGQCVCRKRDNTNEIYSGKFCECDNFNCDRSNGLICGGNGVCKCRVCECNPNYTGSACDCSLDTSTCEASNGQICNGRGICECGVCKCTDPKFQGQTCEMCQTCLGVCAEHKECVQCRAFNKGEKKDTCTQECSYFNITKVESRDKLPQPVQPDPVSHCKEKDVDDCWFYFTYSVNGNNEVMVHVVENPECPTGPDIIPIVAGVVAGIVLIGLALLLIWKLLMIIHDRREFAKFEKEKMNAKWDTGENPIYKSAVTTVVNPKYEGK

Sequence of integrin β1 subunit (human) (P05556 21-798): as the sequence (P05556 21-798, chain 2 of 2) above
T1 sequence (P13612 34-1032, form in doubt, chain 1 of 2): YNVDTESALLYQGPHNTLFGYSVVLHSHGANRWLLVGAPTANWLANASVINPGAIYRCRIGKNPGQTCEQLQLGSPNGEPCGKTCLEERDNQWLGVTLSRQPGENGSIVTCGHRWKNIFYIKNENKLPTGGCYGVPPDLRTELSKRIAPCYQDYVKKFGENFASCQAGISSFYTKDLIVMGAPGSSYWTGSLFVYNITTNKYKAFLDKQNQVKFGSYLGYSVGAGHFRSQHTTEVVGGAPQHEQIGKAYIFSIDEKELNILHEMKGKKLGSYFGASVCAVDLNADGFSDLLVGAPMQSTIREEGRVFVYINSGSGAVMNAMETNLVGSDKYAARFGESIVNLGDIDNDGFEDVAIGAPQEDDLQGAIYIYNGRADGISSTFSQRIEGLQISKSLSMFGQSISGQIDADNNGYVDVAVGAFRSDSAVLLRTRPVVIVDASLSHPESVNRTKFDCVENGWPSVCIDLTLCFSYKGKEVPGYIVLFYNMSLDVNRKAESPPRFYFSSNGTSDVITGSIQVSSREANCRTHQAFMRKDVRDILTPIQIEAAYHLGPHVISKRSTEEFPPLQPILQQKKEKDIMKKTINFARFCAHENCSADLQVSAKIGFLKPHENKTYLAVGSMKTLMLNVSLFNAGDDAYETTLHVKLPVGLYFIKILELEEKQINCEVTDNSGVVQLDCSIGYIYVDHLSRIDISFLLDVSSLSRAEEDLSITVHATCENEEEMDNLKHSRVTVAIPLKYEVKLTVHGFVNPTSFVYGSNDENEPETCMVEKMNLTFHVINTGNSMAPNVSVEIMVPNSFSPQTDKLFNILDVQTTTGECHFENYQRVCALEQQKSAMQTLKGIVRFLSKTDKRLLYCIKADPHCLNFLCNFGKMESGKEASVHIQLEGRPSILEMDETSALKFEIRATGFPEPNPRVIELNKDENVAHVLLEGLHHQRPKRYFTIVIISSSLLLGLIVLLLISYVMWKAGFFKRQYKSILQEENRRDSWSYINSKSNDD
T1 sequence (P05556 21-798, form in doubt, chain 2 of 2): as the sequence (P05556 21-798, chain 2 of 2) above

monoclonal antibody 8A2
concentration of 8A2 able to stimulate increased avidity of a low avidity α4β1 receptor complex for fibronectin, CS-1, or LDV minimal peptides [1]: 0.1 µg/mL

monoclonal antibody P4C10
Adhesion (cpm), Jurkat (T) on HUVE monolayers, +IL-1β; SP2 control 372159 [1]: 230000 cpm
Adhesion (cpm), Jurkat (T) on HUVE monolayers, Basal; SP2 control 83924 [1]: 36900 cpm
Adhesion (cpm), LAD (B) on HUVE monolayers, +IL-1β; SP2 control 104672 [1]: 52600 cpm
Adhesion (cpm), LAD (B) on HUVE monolayers, Basal; SP2 control 19542 [1]: 6360 cpm
Adhesion (cpm), Ramos (B) on HUVE monolayers, +IL-1β; SP2 control 12157 [1]: 3150 cpm
Adhesion (cpm), Ramos (B) on HUVE monolayers, Basal; SP2 control 972 [1]: 604 cpm

rsa-A13: A13 peptide conjugated to rabbit serum albumin (DELPQLVTLPHPN; also: conjugated to rabbit serum albumin)
Molar Concentration (nM) required for 50% adhesion of Jurkat cells (Jurkat cells): No Adhesion

rsa-LDV: LDV conjugated to rabbit serum albumin (Leu-Asp-Val; also: conjugated to rabbit serum albumin)
EC50 (Jurkat cells; read-out: Molar Concentration (nM) required for 50% adhesion of Jurkat cells): > 2000 nM

EILDV [EILDV peptide]
IC50 (integrin receptor α4β1 [2]): 660 µM

B1: CS-1 peptide (peptide)
peptide: DELPQLVTLPHPNLHGPEILDVPST
notes: Free peptide; also called peptide 344; synthetic CS-1
IC50 (integrin receptor α4β1 [2]): 180 µM
Adhesion (cpm), Jurkat (T) on HUVE, +IL-1β; unrelated peptide 293(A) 129864 (integrin receptor α4β1 [3]): 75800 cpm
Adhesion (cpm), LAD (B) on HUVE, +IL-1β; unrelated peptide 293A 74096 (integrin receptor α4β1 [3]): 26200 cpm
Adhesion (cpm), Ramos (B) on HUVE, +IL-1β; unrelated peptide 293A 11132 (integrin receptor α4β1 [3]): 2830 cpm
Adhesion (cpm), Jurkat (T) on HUVE, +IL-1β; no peptide 314848 (integrin receptor α4β1 [4]): 249000 cpm
Adhesion (cpm), Jurkat (T) on HUVE, Basal; no peptide 161092 (integrin receptor α4β1 [4]): 82400 cpm
Adhesion (cpm), LAD (B) on HUVE, +IL-1β; no peptide 71408 (integrin receptor α4β1 [4]): 51600 cpm
Adhesion (cpm), LAD (B) on HUVE, Basal; no peptide 44860 (integrin receptor α4β1 [4]): 23000 cpm
Adhesion (cpm), Ramos (B) on HUVE, +IL-1β; no peptide 12936 (integrin receptor α4β1 [4]): 5160 cpm
Adhesion (cpm), Ramos (B) on HUVE, Basal; no peptide 2724 (integrin receptor α4β1 [4]): 1840 cpm

LHGPEILDVPST (also called CS-1-B12) [B12 peptide]
IC50 (integrin receptor α4β1 [2]): 400 µM

VPST [VPST peptide]
Adhesion (cpm), Jurkat (T) on HUVE, +IL-1β; unrelated peptide 293(A) 129864 (integrin receptor α4β1 [3]): 128000 cpm
Adhesion (cpm), LAD (B) on HUVE, +IL-1β; unrelated peptide 293A 74096 (integrin receptor α4β1 [3]): 42700 cpm
Adhesion (cpm), Ramos (B) on HUVE, +IL-1β; unrelated peptide 293A 11132 (integrin receptor α4β1 [3]): 4570 cpm
Adhesion (cpm), Jurkat (T) on HUVE, +IL-1β; no peptide 314848 (integrin receptor α4β1 [4]): 322000 cpm
Adhesion (cpm), Jurkat (T) on HUVE, Basal; no peptide 161092 (integrin receptor α4β1 [4]): 204000 cpm
Adhesion (cpm), LAD (B) on HUVE, +IL-1β; no peptide 71408 (integrin receptor α4β1 [4]): 98900 cpm
Adhesion (cpm), LAD (B) on HUVE, Basal; no peptide 44860 (integrin receptor α4β1 [4]): 38200 cpm
Adhesion (cpm), Ramos (B) on HUVE, +IL-1β; no peptide 12936 (integrin receptor α4β1 [4]): 15300 cpm
Adhesion (cpm), Ramos (B) on HUVE, Basal; no peptide 2724 (integrin receptor α4β1 [4]): 4170 cpm

RGDS [RGDS peptide]
Adhesion (cpm), Jurkat (T) on HUVE, +IL-1β; no peptide 314848 (integrin α5β1): 358000 cpm
Adhesion (cpm), Jurkat (T) on HUVE, Basal; no peptide 161092 (integrin α5β1): 299000 cpm
Adhesion (cpm), LAD (B) on HUVE, +IL-1β; no peptide 71408 (integrin α5β1): 102000 cpm
Adhesion (cpm), LAD (B) on HUVE, Basal; no peptide 44860 (integrin α5β1): 70700 cpm
Adhesion (cpm), Ramos (B) on HUVE, +IL-1β; no peptide 12936 (integrin α5β1): 28100 cpm
Adhesion (cpm), Ramos (B) on HUVE, Basal; no peptide 2724 (integrin α5β1): 16900 cpm

GPEILDVPST (also called peptide 354) [GPEILDVPST peptide]
IC50 (integrin receptor α4β1 [2]): 450 µM
Adhesion (cpm), Jurkat (T) on HUVE, +IL-1β; unrelated peptide 293(A) 129864 (integrin receptor α4β1 [3]): 89700 cpm
Adhesion (cpm), LAD (B) on HUVE, +IL-1β; unrelated peptide 293A 74096 (integrin receptor α4β1 [3]): 27200 cpm
Adhesion (cpm), Ramos (B) on HUVE, +IL-1β; unrelated peptide 293A 11132 (integrin receptor α4β1 [3]): 2260 cpm
